The values below are quoted from earlier work in article PMC4773801.

The target of this data set is bee venom group III sPLA2 (Apis mellifera) (UniProt P00630).
Sequence of UniProt P00630 (P00630 34-167): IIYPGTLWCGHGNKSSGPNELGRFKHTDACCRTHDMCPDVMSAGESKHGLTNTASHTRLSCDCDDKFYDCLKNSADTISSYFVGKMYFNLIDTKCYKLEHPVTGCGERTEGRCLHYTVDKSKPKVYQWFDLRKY

Turning to “mannose receptor CD206 (from UniProt P22897)”, the Kd was 4.79 µM.
